{"source": "paper PMC6051418", "biological_target": "R28A-HD5 (human)", "experiment": "crystal structure", "data": [{"substance": "R28A-HD5 (peptide)", "values": [{"measurement": "stoichiometry N", "result": 2}]}]}
